From article PMC5123071 (2016) come the findings set out here.

The assay addresses biotinylated Apaf-1 CARD-LZ-Avi (UniProt O14727 1-137, biotin on the AviTag (BirA)). The assay is described as follows: SPR. On the technique in general: In SPR one partner is held on a chip, and binding of the other changes the refractive index at the surface.

Chain of biotinylated Apaf-1 CARD-LZ-Avi (O14727 other isoform, or with tags, fused parts or gaps): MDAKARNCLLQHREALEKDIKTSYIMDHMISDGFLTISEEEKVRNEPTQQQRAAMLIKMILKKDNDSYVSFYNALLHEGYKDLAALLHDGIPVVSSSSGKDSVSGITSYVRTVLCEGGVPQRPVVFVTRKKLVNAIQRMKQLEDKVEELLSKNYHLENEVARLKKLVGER

B1: processed C9/8 chimera (enzyme)
chain 1: MDEADRRLLRRCRLRLVEELQVDQLWDALLSRELFRPHMIEDIQRAGSGSRRDQARQLIIDLETRGSQALPLFISCLEDTGQDMLASFLRTNRQAAKLSKPTLENLTPVVLRPEIRKPEVLRPETPRPVDIGSGGFGSESQTLDKVYQMKSKPRGYCLIINNHNFAKAREKVPKLHSIRDRNGTHLDAGALTTTFEELHFEIKPHDDCTVEQIYEILKIYQLMDHSNMDCFICCILSHGDKGIIYGTDGQEAPIYELTSQFTGLKCPSLAGKPKVFFIQACQGDNYQKGIPVETD
chain 2: LSSPQTRYIPDEADFLLGMATVNNCVSYRNPAEGTWYIQSLCQSLRERCPRGDDILTILTEVNYEVSNKDDKKNMGKQMPQPTFTLRKKLVFPSD
B1: the Kd is 125 nM.

The term Kd denotes the constant that tells how readily two partners part at equilibrium. A lower Kd goes with higher affinity.
